Reference: patent publication US20240254182A1 (PROVINCIAL HEALTH SERVICES AUTHORITY, published 2024)
Numbering of substitutions follows the chain as printed.

T1: WT G-CSF, purified from insect cells, tag cleaved (human, UniProt P09919 31-206)
T1 construct: protein of the SPR; also called G-CSFWT; wild type G-CSF
T1 sequence: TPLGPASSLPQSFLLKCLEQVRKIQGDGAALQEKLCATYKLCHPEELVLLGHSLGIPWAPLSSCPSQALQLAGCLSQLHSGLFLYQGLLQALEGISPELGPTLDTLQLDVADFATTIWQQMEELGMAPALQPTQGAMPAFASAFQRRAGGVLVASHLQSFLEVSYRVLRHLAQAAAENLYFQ

T2: design 401 G-CSFR(Ig-CRH)E, tag cleaved (human, UniProt Q99062 26-331)
T2 chain: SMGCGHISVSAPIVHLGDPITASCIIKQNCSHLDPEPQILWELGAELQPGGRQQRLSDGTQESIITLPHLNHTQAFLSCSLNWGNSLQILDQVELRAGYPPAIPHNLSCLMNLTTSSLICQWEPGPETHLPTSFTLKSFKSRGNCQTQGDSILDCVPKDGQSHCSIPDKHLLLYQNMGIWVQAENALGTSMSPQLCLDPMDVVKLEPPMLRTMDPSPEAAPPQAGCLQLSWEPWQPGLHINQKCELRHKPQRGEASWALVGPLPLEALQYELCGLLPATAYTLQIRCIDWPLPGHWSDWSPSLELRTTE

T3: design 402 G-CSFR(Ig-CRH)E, tag cleaved (human, UniProt Q99062 26-331)
T3 chain: T2 chain with D168E, Q175E, D289E

B1: WT G-CSFR(Ig-CRH), purified, tag cleaved (receptor)
chain: GSMGCGHISVSAPIVHLGDPITASCIIKQNCSHLDPEPQILWRLGAELQPGGRQQRLSDGTQESIITLPHLNHTQAFLSCSLNWGNSLQILDQVELRAGYPPAIPHNLSCLMNLTTSSLICQWEPGPETHLPTSFTLKSFKSRGNCQTQGDSILDCVPKDGQSHCSIPRKHLLLYQNMGIWVQAENALGTSMSPQLCLDPMDVVKLEPPMLRTMDPSPEAAPPQAGCLQLSWEPWQPGLHINQKCELRHKPQRGEASWALVGPLPLEALQYELCGLLPATAYTLQIRCIRWPLPGHWSDWSPSLELRTTE
notes: also called G-CSFRWT; wild type G-CSFR(Ig-CRH)
B2: design 401 G-CSFE, tag cleaved (ligand)
chain: T1 sequence with E19K, E46R, L108K, D112R
B3: design 402 G-CSFE, tag cleaved (ligand)
chain: T1 sequence with E19K, E46R, D112K, T115K

Tests used:
[1] = molecular target: T1, WT G-CSF, purified from insect cells, …; experiment: SPR (Biacore T200, 25 °C), single-cycle kinetics, 1:1 Langmuir fit; lower end of the range found for the WT:WT pair
Procedure: (§1) To assess binding affinity of G-CSFE to G-CSFRWT, recombinant G-CSFRWT purified as described in Example 5 was captured as described above in this Example. Using single-cycle kinetics, six concentrations of a two-fold dilution series of each G-CSFE mutant starting at […] with a blank buffer control were sequentially injected as described above. The same sample titration was also performed on a reference cell with no variants captured. The G-CSFRWT surface was regenerated as described above.
(§2) Double-referenced sensorgrams from duplicate or triplicate repeat injections were analyzed using Biacore™ T200 Evaluation Software v3.0 and fit to the 1:1 Langmuir binding model.
(§3) Kinetic-derived affinity constants (KD) where obtained by fitting the association and dissociation phases of the curves. The KD of WT G-CSF for WT G-CSFR(Ig-CRH) ranged between 1.8-2.5E-9. For the cases in which the kinetic parameters could not be fit an attempt was made to derive a steady state affinity constant. In those cases, the KD fold change was calculated from the steady state derived KD for the WT G-CSF:WT G-CSFR(Ig-CRH) pair and is indicated in Table 7.

[2] = molecular target: B1; experiment: SPR, single-cycle kinetics, G-CSFR(Ig-CRH) on the chip, G-CSF injected
Procedure: The SPR binding assays were carried out on a Biacore T200 instrument (GE Healthcare, Mississauga, ON, Canada) with PBS-T (PBS+0.05% (v/v) Tween 20) running buffer at a temperature of 25° C. CM5 Series S sensor chip, Biacore amine coupling kit (NHS, EDC and 1 M ethanolamine), and 10 mM sodium acetate buffers were all purchased from GE Healthcare. PBS running buffer with 0.05% Tween20 (PBS-T) was purchased from Teknova Inc. (Hollister, CA). Designs were assessed in three different immobilization orientations.
as §1, §2

[3] = molecular target: T2, design 401 G-CSFR(Ig-CRH)E, tag cleaved; experiment: SPR, G-CSFRE amine-coupled, G-CSFE injected; steady state derived affinity constant
Procedure: (§4) To determine binding affinity of G-CSFE to G-CSFRE the G-CSFRE mutant was captured by standard amine coupling as described by the manufacturer (GE LifeSciences). Briefly, immediately after EDC/NHS activation, a 5 μg/mL solution of G-CSFRE in 10 mM NaOAc, pH 5.0, was injected at a flow rate of 5 μL/min until a receptor density of ˜700-900 RU was reached. The remaining active groups were quenched by a 420 s injection of 1 M ethanolamine hydrochloride-NaOH pH 8.5 at 10 μL/min. Using single-cycle kinetics, six concentrations of a two-fold dilution series of the corresponding G-CSFE mutant starting at 200 nM with a blank buffer control were sequentially injected at 25 μL/min for 300 s with a 1800 s dissociation phase, resulting in a set of sensorgrams with a buffer blank reference. The same sample titration was also performed on a reference cell with no variants captured. The chip was regenerated to prepare for the next injection cycle by one pulse of 10 mM glycine/HCl, pH 2.0, for 30 s at 30 μL/min.
as §2, §3

[4] = molecular target: T3, design 402 G-CSFR(Ig-CRH)E, tag cleaved; experiment: as above
Procedure: as §4, §2, §3

Row | Binder | Kd [1] | binding result [2] | KD fold change (against WT:WT) [3] | KD fold change (against WT:WT) [4]
1 | B1 | 1.8 to 2.5 nM | – | – | –
2 | B2 | – | no binding | 0.6 fold | –
3 | B3 | – | no binding | – | 0.8 fold
